Assay results from patent US20170137473A1, “FLUOROGEN ACTIVATING AND SHIFTING TAG (FAST)” (PARIS SCIENCES ET LETTRE - QUARTIER LATIN, priority 2014, published 2017).
Residue numbers refer to the chain shown, from its start.

B1: Clone 3: best fluorescent HBR-binding PYP variant, SEQ ID NO: 3, residues 94-101 WMIPTSRG (protein)
chain: MEHVAFGSEDIENTLAKMDDGQLDGLAFGAIQLDGDGNILQYNAAEGDITGRDPKQVIGKNFFKDVAPGTDSPEFYGKFKEGVASGNLNTMFEWMIPTSRGPTKVKVHMKKALSGDSYWVFVKRV
modifications: Functional derivative of SEQ ID NO: 48 - Clone 3
B2: Clone 5: fluorescent HBR-binding PYP variant, SEQ ID NO: 5, residues 94-101 WRIPTECA (protein)
chain: B1 chain with M95R, S99E, R100C, G101A
modifications: Functional derivative of SEQ ID NO: 48 - Clone 5
B3: Clone 4: fluorescent HBR-binding PYP variant, SEQ ID NO: 4, residues 94-101 WDIPTNPE (protein)
chain: B1 chain with M95D, S99N, R100P, G101E
modifications: Functional derivative of SEQ ID NO: 48 - Clone 4
B4: Clone 2: fluorescent HBR-binding PYP variant, SEQ ID NO: 2, residues 94-101 WLIPTLPQ (protein)
chain: B1 chain with M95L, S99L, R100P, G101Q
modifications: Functional derivative of SEQ ID NO: 48 - Clone 2
B5: Clone 6: fluorescent HBR-binding PYP variant, SEQ ID NO: 6, residues 94-101 WLIPTRNA (protein)
chain: B1 chain with M95L, S99R, R100N, G101A
modifications: Functional derivative of SEQ ID NO: 48 - Clone 6

Columns and labels:
[1] = known in the art; cited from earlier work
[2] = Acid-base titration and absorption/emission of free fluorogen in aqueous solution; assay type: physicochemical
Protocol: (§1) pH measurements were performed on a Standard pH meter PHM210 Radiometer Analytical (calibrated with aqueous buffers at pH 4 and 7 or 10) with a Crison 5208 Electrode (Barcelona, Spain). UV/Vis absorption spectra were recorded in 1 cm×1 cm quartz cuvettes (Hellma) on a diode array UV/Vis spectrophotometer (Evolution array, Thermo Scientific). Corrected fluorescence spectra upon one-photon excitation were recorded with a Photon Technology International QuantaMaster QM-1 spectrofluorimeter (PTI, Monmouth Junction, NJ) equipped with a Peltier cell holder (TLC50, Quantum Northwest, Shoreline, Wash.). The overall emission quantum yields after one-photon excitation φ were calculated from the relation: […]
(§2) where the subscript ref stands for standard samples. A(λexc) is the absorbance at the excitation wavelength λexc, D is the integrated emission spectrum, and n is the refractive index for the solvent. The uncertainty for the experimental value of φ was estimated to be ±20%. The standard fluorophore for the quantum yields measurements was Fluorescein in sodium hydroxide 0.1 M with φref=0.92. The titration experiments used for the determination of the thermodynamic constants were performed on a SpectraMax®M5e (Molecular Devices) plate-reader. The on- and off-rate constants were determined by stopped-flow experiments using a RX2000 rapid kinetic stopped flow accessory (Applied Photophysics, Leatherhead, UK). The circular dichroism spectra were recorded on a J-815 circular dichroism spectropolarimeter (Jasco). The photobleaching experiments were performed on a the Photon Technology International QuantaMaster QM-1 spectrofluorimeter (PTI, Monmouth Junction, NJ) equipped with a Peltier cell holder (TLC50, Quantum Northwest, Shoreline, Wash.).
The stability of the synthesized compounds was evaluated in aqueous solutions at neutral pH. Unstable and/or non-soluble compounds were not further studied. The photochemical and acido-basic properties of the remaining compounds were thus analyzed. Acid-base titrations were performed in aqueous solution by recording absorption and emission spectra as a function of pH.
The protonated phenol state of HBR was indeed shown to strongly absorb violet light (maximal absorption wavelength 397 nm), while the phenolate state strongly absorbs blue light (maximal absorption wavelength 449 nm) (FIG. 2). This red-shift in absorption upon ionization can be explained by the stronger electronic donation of the negatively charged phenolate. The possible fluorescence increase of HBR was evaluated by restricting the motion thereof in monitoring the influence of medium viscosity on HBR fluorescence emission. With a pKA of 8.4±0.1, HBR is mainly protonated at physiological pH, which enabled to forecast it could undergo a specific red shift upon binding-induced deprotonation within a tailored protein cavity. In aqueous solution, both acidic and basic states of HBR are weakly fluorescent (FIG. 3), emitting respectively at 470 and 545 nm with 0.02% and 0.3% fluorescence quantum yields.

[3] = tested on: wild-type bacteria, yeast and mammalian cells; experiment: Fluorescence background of fluorogen in wild-type cells (flow cytometry, confocal); assay type: cell-based
Protocol: (§3) Flow cytometry analysis was performed on an Accuri C6 (BD Biosciences). Confocal micrographs were acquired on a Zeiss LSM 710 Laser Scanning Microscope equipped with a Plan Apochromat 63×/1.4 NA oil immersion objective. ZEN software was used to collect the data. Images were analyzed with Image J. Spinning-disk confocal micrographs were acquired on a Nikon Eclipse Ti microscope equipped with a 4×/0.15 N.A objective and a coolSnap HQ2/CDDcamera (Princeton Instrument). Metamorph premier 7.6 software (Molecular Devices) was used to collect the data.
(§4) Labeling of Y-FAST with HBR and HMBR in cells was then analyzed by flow cytometry in three different expression systems: yeast, E. coli and mammalian cells (HeLa cells). The fluorescence was compared to wild-type cells or cells expressing wild-type PYP. […] The performance and selectivity of Y-FAST labeling in mammalian cells, yeast and bacteria was furthermore confirmed by confocal microscopy (FIG. 14d and FIGS. 15 c to f and FIG. 16).

[4] = target: T1, wild-type PYP (Halorhodospira halophila, UniProt P16113, C69G); experiment: Fluorogen labeling of cells expressing wild-type PYP; assay type: cell-based
T1 construct: fusion partner differs by host: Aga2p (yeast surface display, pAG14); His-tag-ENLYFQG (E. coli, pET28a); expressed in transfected cells
Protocol: as §3, §4

[5] = tested on: HeLa cells; experiment: LIVE/DEAD viability assay (calceinAM, EthD1) of HeLa cells; assay type: cell-based; conditions: incubated 5 h at 5, 10 and 20 μM; concentrations used for imaging
Protocol: Cell viability was tested by using calceinAM and EthD1 (LIVE/DEAD® viability/cytotoxicity assay kit). CalceinAM is a cell-permeant profluorophore cleaved by intracellular esterases releasing the green fluorescent polyanionic calcein in live cells. EthD1 (Ethidium homodimer 1) is a non cell-permeant nucleic acid red fluorescent stain that enters only cells with damaged membranes and undergoes a fluorescence enhancement upon binding to nucleic acids, thereby producing a bright red fluorescence in dead cells. Control experiments with HeLa cells non-incubated with dye (top left, live control) or incubated for 1 h with 1% hydrogen peroxyde (top right, dead control) are shown. Cell fluorescence was evaluated by confocal microscopy.

[6] = tested on: HeLa cells; experiment: Brightness and photostability of fluorescent proteins expressed in mammalian (HeLa) cells; assay type: cell-based
Protocol: FIG. 18 is a set of graphs and images showing Y-FAST brightness and photo-resistance in mammalian cells. […] (a) Confocal micrographs of representative cells (Ex/Em 488/493-797 nm; scale bars 10 μm). Side-by-side images were recorded using the same settings for direct comparison of the fluorescence intensities. (b) Quantification of the fluorescence brightness of the different proteins (n=15-30 cells).
UnaG upon long-term observation with high power 488 nm laser excitation (light power 90 kW·cm-2, pixel dwell 1.58 μs). Plots show the fluorescence intensity as a function of the number of confocal microscope scans.
HEK293 and HeLa cells were cultured in DMEM supplemented with phenol red, Glutamax I, 10% fetal calf serum and 1% penicillin-streptomycin at 37° C. within a 5% CO2 atmosphere. For microscopy imaging, cells were seeded in μDish IBIDI (Biovalley) coated with poly-L-lysine. Cells were transiently transfected using Genejuice (Merck) according to the manufacturer's protocol.
as §3

[7] = Circular dichroism stability of Y-FAST versus temperature; assay type: physicochemical; conditions: 25-45° C. range
From the text: Note that we verified by circular dichroism, that Y-FAST was stable in the considered temperature range in order to ascertain that our two-state model was valid for the subsequent analyses.
as §2

[8] = Absorption and emission properties of HBR-binding PYP variants in presence of HBR; assay type: physicochemical; conditions: variant with HBR; for λabs / λem: PBS pH 7.4; for Fluorescence quantum yield: fraction
Protocol: as §1, §2
The photophysical properties of the engineered fluorescent proteins were more precisely characterized. […] This 70 nm red-shift in absorption was in accordance with HBR being bound within the PYP-variant cavity in its deprotonated state. This red-shift in absorption upon binding was also accompanied with a large fluorescence increase at 540 nm (FIG. 10 and Table 2 below).

[9] = glycerol content increased from 0 to 40% (v/v)

T1 sequence (P16113 whole entry C69G, the tested form may be a part): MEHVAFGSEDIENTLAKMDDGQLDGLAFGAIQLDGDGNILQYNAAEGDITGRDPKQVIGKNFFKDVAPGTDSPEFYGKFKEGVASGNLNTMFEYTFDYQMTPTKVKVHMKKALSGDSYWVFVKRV

Molecule	Extinction coefficient [8]	Relative brightness (% of EGFP) [8]	brightness [8]	λabs [8] [nm]	λem [8] [nm]	Fluorescence quantum yield [8]	other results
parahydroxybenzylidene-5-imidazolinone [p-HBI]	–	–	–	–	–	–	absorption wavelength, deprotonated form [1]: 475 nm; absorption wavelength, protonated form [1]: 397 nm
O=C1NC(=S)S/C1=C\c1ccc(O)cc1 [HBR, (Z)-5-(4-hydroxybenzylidene)-2-thioxo-1,3-thiazolidin-4-one]	–	–	–	–	–	–	pKa ([2]; aqueous solution): 8.4 ± 0.1; emission wavelength, acidic state ([2]; free in aqueous solution): 470 nm; emission wavelength, basic state ([2]; free in aqueous solution): 545 nm; fluorescence quantum yield, acidic state ([2]; free in aqueous solution): 0.02%; fluorescence quantum yield, basic state ([2]; free in aqueous solution): 0.3%; maximal absorption wavelength, phenolate state ([2]; free in aqueous solution): 449 nm; maximal absorption wavelength, protonated phenol state ([2]; free in aqueous solution): 397 nm; maximal absorption wavelength ([2]; free, PBS pH 7.4): 397 nm; increase of the fluorescence quantum yield, acidic state [2, 9]: Six; increase of the fluorescence quantum yield, basic state [2, 9]: three-fold; fluorescence background in wild-type cells [3]: no or negligible fluorescence background; binding to wild-type PYP [4]: do not bind; toxicity for HeLa cells [5]: non-toxic
B1	44,000 M^−1cm^−1	12 % of EGFP	4,000	467	542	0.09	photostability in cells ([6]; 488 nm excitation): more stable than UnaG and Venus, but less than EGFP; fluorescence in mammalian cells ([6]; blue excitation at 488 nm, Y-FAST labeled with 5 μM HMBR): comparable with that of the green fluorescent proteins EGFP and UnaG, and two fold lower than that of the yellow fluorescent Venus; photostability in cells ([6]; excitation at 514 nm): almost did not photobleach; fluorescence in mammalian cells ([6]; green excitation at 514 nm): five-fold less than Venus; stability by circular dichroism [7]: stable
B2	47,000 M^−1cm^−1	8.3 % of EGFP	2,800	468	542	0.06	–
B3	41,000 M^−1cm^−1	7.4 % of EGFP	2,500	468	541	0.06	–
B4	46,000 M^−1cm^−1	8.3 % of EGFP	2,800	466	540	0.06	–
B5	43,000 M^−1cm^−1	9.0 % of EGFP	3,000	467	539	0.07	–
